Measurements from patent US20160222085A1 (CHILDREN S HOSPITAL OF PHILADELPHIA, published 2016).
Ends that are not written are not given here.

Tests used:
[1] = molecular target: T1, FV-810 (FV-DT), Factor V with amino acids 811-1491 deleted from the B-domain (human, UniProt P12259 29-838; P12259 1520-2224); assay: fluorescence anisotropy displacement; unlabeled BR titrated into 30 nM OG488-BR, 20 nM FV-810, 50 uM PCPS
T1 construct: range 1-810;range 1492-2196; Single-chain cofactor-like variant; All residue numbers count on mature Factor V (add 28 for the precursor)
Method: (§1) Control experiments were performed by titrating FV-810 into buffer containing 10 mM EDTA (X) or by titrating rFVa (▴).
(§2) Data were analyzed by nonlinear least squares regression analysis using the Marquardt algorithm (Bevington et al. (1992) Data Reduction and Error Analysis for the Physical Sciences, pp. 141-167, McGraw-Hill, New York), and the quality of each fit was assessed as described (Straume et al. (1992) Methods Enzymol., 210:87-105).

[2] = molecular target: T1, FV-810 (FV-DT), Factor V with amino …; assay: fluorescence anisotropy displacement of OG488-BR; 30 nM OG488-BR, 20 nM FV-810, 50 uM PCPS; stoichiometry of 1 assumed
[3] = molecular target: T1, FV-810 (FV-DT), Factor V with amino …; assay: global fit of prethrombin-2 activation rates (1-50 nM FXa, 0-1000 nM BR, 5 nM FV-810, 50 uM PCPS) to a tight, competitive binding model
Method: as §2

[4] = molecular target: T1, FV-810 (FV-DT), Factor V with amino …; assay: fluorescence anisotropy, displacement; human BR titrated into 30 nM OG488-BR, 20 nM FV-810, 50 uM PCPS, 25 C; competitor: OG488-BR
[5] = molecular target: T1, FV-810 (FV-DT), Factor V with amino …; assay: fluorescence anisotropy, displacement; unlabeled BR titrated into 30 nM OG488-BR, 20 nM FV-810, 50 uM PCPS; competitor: OG488-BR [inset]
Method: as §1

[6] = molecular target: T1, FV-810 (FV-DT), Factor V with amino …; assay: fluorescence anisotropy, displacement; FVBR titrated into labeled active site-blocked FXa plus FVDT on PCPS liposomes; displaced ligand: labeled FXa
[7] = molecular target: T1, FV-810 (FV-DT), Factor V with amino …; assay: fluorescence anisotropy; FV-810 titrated into 20 or 40 nM OG488-BR, 50 uM PCPS, 25 C
Method: as §1
(§3) Steady-state fluorescence anisotropy was measured at 25° C. in a PTI Quanta-Master™ fluorescence spectrophotometer (Photon Technology International, Birmingham, N.J.) using excitation and emission wavelengths of 480 and 520 nm, respectively, with long-pass filters (KV500, CVI Melles Griot) in the emission beam.
as §2
Target sequence in this assay (P12259 other isoform, or with tags, fused parts or gaps, form in doubt): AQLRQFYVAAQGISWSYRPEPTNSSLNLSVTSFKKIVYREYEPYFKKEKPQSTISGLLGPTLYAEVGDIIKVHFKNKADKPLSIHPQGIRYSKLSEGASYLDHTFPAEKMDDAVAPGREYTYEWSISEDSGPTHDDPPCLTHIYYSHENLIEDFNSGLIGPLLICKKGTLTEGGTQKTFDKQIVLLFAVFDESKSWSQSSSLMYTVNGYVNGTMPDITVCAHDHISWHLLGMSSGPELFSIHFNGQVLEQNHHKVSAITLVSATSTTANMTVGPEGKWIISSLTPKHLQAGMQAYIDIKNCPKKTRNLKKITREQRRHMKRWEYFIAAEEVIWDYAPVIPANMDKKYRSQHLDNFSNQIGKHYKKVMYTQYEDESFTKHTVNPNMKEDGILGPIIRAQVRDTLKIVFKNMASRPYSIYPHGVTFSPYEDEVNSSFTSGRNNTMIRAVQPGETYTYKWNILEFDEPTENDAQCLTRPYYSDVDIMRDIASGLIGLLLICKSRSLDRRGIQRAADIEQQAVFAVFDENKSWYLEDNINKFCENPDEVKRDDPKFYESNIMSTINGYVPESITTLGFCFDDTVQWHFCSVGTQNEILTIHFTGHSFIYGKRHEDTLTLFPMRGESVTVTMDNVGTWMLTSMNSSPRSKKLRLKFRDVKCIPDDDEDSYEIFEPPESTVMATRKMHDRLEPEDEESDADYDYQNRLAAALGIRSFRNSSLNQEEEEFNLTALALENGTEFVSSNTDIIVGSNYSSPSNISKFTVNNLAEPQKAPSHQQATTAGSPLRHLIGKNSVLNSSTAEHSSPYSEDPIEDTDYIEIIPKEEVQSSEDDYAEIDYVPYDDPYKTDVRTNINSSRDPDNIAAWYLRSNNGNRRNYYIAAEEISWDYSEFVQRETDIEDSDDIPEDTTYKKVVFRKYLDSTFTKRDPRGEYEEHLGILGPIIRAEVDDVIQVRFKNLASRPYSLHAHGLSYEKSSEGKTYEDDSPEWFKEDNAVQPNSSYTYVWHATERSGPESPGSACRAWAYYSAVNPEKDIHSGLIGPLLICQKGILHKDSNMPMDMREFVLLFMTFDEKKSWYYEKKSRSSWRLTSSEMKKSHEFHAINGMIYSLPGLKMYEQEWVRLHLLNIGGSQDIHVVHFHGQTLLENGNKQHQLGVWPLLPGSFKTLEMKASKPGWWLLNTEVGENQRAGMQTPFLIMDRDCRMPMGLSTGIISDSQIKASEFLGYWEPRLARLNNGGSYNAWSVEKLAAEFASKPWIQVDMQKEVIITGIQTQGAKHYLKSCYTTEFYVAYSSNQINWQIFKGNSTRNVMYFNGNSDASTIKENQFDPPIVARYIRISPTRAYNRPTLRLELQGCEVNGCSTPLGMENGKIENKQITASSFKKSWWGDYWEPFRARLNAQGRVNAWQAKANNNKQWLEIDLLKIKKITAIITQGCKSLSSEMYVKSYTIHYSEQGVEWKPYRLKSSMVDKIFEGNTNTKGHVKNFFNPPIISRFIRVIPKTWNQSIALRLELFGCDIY

[8] = molecular target: T1, FV-810 (FV-DT), Factor V with amino …; assay: fluorescence anisotropy; buffer-pretreated protein titrated into 30 nM OG488-BR, 50 uM PCPS; n=1 assumed
Method: (§4) FV-810, FV-810^R709Q (▴), FV-810^R1545Q (♦), and FV-810^QQ (▪) were pretreated with buffer (FIG. 14A) or thrombin (FIG. 14B).
as §3
Target sequence in this assay (P12259 other isoform, or with tags, fused parts or gaps, form in doubt): as above

FV-810^R709Q = molecular target: T2, FV-810^R709Q (human, UniProt P12259 29-838; P12259 1520-2224); assay: as above
T2 construct: range 1-810;range 1492-2196; mature numbering
T2 sequence (P12259 other isoform, or with tags, fused parts or gaps R709Q R709Q): as the sequence (P12259 other isoform, or with tags, fused parts or gaps, form in doubt) above, with R709Q counted along it
Method: as §4, §3

FV-810^R1545Q = molecular target: T3, FV-810^R1545Q (human, UniProt P12259 29-838; P12259 1520-2224); assay: as above
T3 construct: range 1-810;range 1492-2196; mature numbering
T3 sequence (P12259 other isoform, or with tags, fused parts or gaps R1545Q R1545Q): as the sequence (P12259 other isoform, or with tags, fused parts or gaps, form in doubt) above, with R864Q counted along it
Method: as §4, §3

FV-810^QQ [9] = molecular target: T4, FV-810^QQ (human, UniProt P12259 29-838; P12259 1520-2224); assay: as above
T4 construct: range 1-810;range 1492-2196; Both thrombin sites (Arg709 and Arg1545) changed to Gln; the assay field says where thrombin pretreatment was used
T4 sequence (P12259 other isoform, or with tags, fused parts or gaps): as the sequence (P12259 other isoform, or with tags, fused parts or gaps, form in doubt) above, with R709Q, R864Q counted along it
Method: as §4, §3

[10] = molecular target: T5, FV-810^R1545Q pretreated with thrombin (human, UniProt P12259 29-737; P12259 738-838; P12259 1520-2224); assay: fluorescence anisotropy; thrombin-pretreated protein titrated into 30 nM OG488-BR, 50 uM PCPS; n=1 assumed
T5 construct: Cleaved only at Arg709: B-domain remnant stays tethered to the light chain; also called thrombin-cleaved FV-810^R1545Q
T5 sequence (P12259 29-737, chain 1 of 2): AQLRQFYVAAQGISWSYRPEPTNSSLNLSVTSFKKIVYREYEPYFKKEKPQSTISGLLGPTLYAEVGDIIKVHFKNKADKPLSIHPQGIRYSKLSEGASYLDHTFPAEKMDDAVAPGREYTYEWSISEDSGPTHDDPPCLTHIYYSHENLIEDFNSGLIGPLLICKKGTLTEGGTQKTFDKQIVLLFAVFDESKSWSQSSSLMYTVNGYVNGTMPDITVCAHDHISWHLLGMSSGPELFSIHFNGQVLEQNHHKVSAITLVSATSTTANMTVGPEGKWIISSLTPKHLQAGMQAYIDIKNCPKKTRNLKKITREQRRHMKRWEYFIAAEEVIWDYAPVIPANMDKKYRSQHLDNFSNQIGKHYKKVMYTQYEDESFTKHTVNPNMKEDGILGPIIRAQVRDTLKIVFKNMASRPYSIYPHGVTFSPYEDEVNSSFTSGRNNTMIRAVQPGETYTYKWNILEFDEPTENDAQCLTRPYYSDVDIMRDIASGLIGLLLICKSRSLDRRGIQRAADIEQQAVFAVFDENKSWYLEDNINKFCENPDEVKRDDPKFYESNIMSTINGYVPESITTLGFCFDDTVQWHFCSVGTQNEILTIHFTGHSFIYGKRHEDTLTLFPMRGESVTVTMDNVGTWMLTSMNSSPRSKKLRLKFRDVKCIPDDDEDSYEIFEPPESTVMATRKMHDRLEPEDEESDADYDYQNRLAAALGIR
T5 sequence (P12259 other isoform, or with tags, fused parts or gaps R1545Q R1545Q, chain 2 of 2): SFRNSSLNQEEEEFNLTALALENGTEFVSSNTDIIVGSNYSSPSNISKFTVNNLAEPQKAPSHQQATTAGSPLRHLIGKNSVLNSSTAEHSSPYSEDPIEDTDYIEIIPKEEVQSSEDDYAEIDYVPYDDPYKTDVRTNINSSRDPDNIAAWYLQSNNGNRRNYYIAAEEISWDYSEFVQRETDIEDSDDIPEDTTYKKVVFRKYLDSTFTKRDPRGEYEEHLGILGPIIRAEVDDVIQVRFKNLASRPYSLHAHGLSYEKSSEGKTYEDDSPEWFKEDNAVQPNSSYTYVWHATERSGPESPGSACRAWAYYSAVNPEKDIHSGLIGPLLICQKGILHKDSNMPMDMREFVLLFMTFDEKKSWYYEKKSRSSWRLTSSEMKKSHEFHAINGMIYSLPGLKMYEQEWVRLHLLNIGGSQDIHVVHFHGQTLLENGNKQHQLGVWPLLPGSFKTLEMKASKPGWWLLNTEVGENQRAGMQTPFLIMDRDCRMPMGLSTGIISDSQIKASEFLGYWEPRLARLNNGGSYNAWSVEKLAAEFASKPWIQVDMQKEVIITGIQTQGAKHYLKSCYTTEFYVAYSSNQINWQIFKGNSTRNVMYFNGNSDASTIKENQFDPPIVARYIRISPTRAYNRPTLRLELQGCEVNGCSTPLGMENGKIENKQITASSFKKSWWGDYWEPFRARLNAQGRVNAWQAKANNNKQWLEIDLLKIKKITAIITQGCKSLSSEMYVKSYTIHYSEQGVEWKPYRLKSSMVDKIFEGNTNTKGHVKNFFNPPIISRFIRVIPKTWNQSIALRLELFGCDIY
Method: as §4, §3

FV-810^QQ [11] = molecular target: T4, FV-810^QQ; assay: as above
Method: as §4, §3

Kd [1] [nM] | Kd [2] [nM] | Kd [3] [nM] | IC50 (read off the curve) [4] [nM] | IC50 (read off the curve) [5] [nM] | IC50 (read off the curve) [6] [nM] | Kd [7] [nM] | Kd [8] [nM] | Kd (FV-810^R709Q) [nM] | Kd (FV-810^R1545Q) [nM] | Kd (FV-810^QQ [9]) [nM] | Kd [10] [nM] | Kd (FV-810^QQ [11]) [nM] | Binder
2.1 | 2.2 | 34.2 | ~50 | ~50 | ~90 |  |  |  |  |  |  |  | Factor V basic region peptide (FVBR), amino acids 951-1008 of Factor V (Expressed in E. coli as a SUMO fusion; also called FV basic peptide; BR peptide) peptide: SRAWGESTPLANKPGKQSGHPKFPRVRHKSLQVRQDGGKSRLKKSQFLIKTRKKKKEK
 |  |  |  |  |  | 2.07 | 2.1 | 7.1 | 2 | 0.31 | 30.3 | 1.3 | Oregon Green 488 maleimide-modified BR (OG488-BR) (also called fluorescently labeled FVBR) peptide: C(Oregon Green 488 maleimide)SRAWGESTPLANKPGKQSGHPKFPRVRHKSLQVRQDGGKSRLKKSQFLIKTRKKKKEK
